Experiment: soluble on expression in E. coli; label from the status in PepcDB or PDB records

| Sequence | soluble on expression in E. coli |
| --- | --- |
| MSLSAFLPSLDTPVALLDMPRMQRNIQRMQQRMNELGVRLRPHVKTSKSLPVIQAQMAAGARGVTVSTLKEAEHCFAEGISDVFYAVAIAPGKLDQALKLRRIGCRLSILTDSVVAAQAIVAFGQQHDEQFQVWIEIDCDGHRSGLTVEDNALIEVARTLVEGGMQLRGVMTHAGSSYDLDTPEALQALAEQERLLCVSAAERIRQAGLPCPEVSIGSTPTALSAQGLAGVTEVRAGVYVFFDLVMHNIGVCGADEGHHHHHH | not soluble |
| MSLSARSSASSWSEEPVQSNMDISTGHMILSYMEDHLKNKNRLEKEWEALCAYQAEPNSSFVAQREENVPKNRSLAVLTYDHSRVLLKAENSHSHSDYINASPIMDHDPRNPAYIATQGPLPATVADFWQMVWESGCVVIVMLTPLAENGVRQCYHYWPDEGSNLYHIYEVNLVSEHIWCEDFLVRSFYLKNLQTNETRTVTQFHFLSWYDRGVPSSSRSLLDFRRKVNKCYRGRSCPIIVHCSDGAGRSGTYVLIDMVLNKMAKGAKEIDIAATLEHLRDQRPGMVQTKEQFEFALTAVAEEVNAILKALPQEGHHHHHH | soluble |
| MSLSASTHDLVIIGAGPAGMSAALTAASLGMKTLLLDEQLRPGGQIYRNITAVPPSVAALLGPDYRHGEGLAARLGRSGVELRFGAMVWDVARDLTVTAQQDGQSFQVRAPQLIAATGAMERASPIPGWTLPGVLNAGAAQIALKSASAVPSGRVVLAGSGPLLLLVACQLLDAGVSLAGIVETSPSTNRWRALRHLPAALGAHAYLAKGLRMLWRLRRAGVPMFAAATSLRVEGGERVQALAFKADRIDHLLHADVVLLHHGVVPNTQLSRLLRVDHDWDLVQLAWRPQVNAWGETSLAGFRVAGDGAAIAGAQAAEPNGTLAALGAAQALGRLDVTECEQRAASARGTLKRQLRIRPFLDALYRPPEWLSDPTDETVVCRCEEVTAGRVREMARLGCQGPNQTKFFSRCGMGPCQGRVCGLTVTQILSTELGRPPSEVGAYHIRSPLKPVPLASIAALADTATIENSEPMETTEGHHHHHH | not soluble |
| MSLSDAAAVTVVEQTEKRHKLIGYWHNFVNGAGCPIRLADMADAWDVIDIAFAENDRNSDGTVHFNLYSGDIYSDCPALDPTQFKQDMAALQAKGKKFVLSLGGAEGTITLNTDQDEANFVSSLTGLIAEWGFDGLDVDLESGSNLVHGSQIQARLGRALLQIEQNMGGDMYLTMAPEHPYVQGGYVAYSGIWGAYIPVINDTRSTLDLLHVQLYNNGGLPNPYLPSSAPEGSVDMMVAQSKMLIEGFELADGTQFAPLRDDQVAIGLPSGPSSANSGQAPTQNILNALDCLTKGTSCGTVKPAFNYPNYAGVMTWSINWDQHDGFNFSKPVGDKLTQMNAEGHHHHHH | soluble |
| MSLSDDRLSLQTFLTRVTAVRLKLQQVVTAPDPEAMIQVLAQTVFQGKGADLTDIQAYGNLIAASLGADWGPAANTLFVRPLDQAWQQILLPSSAGLNRAWQRAIVDEWQGAFSGRYPFAATSSDASLPMLGQMIRADSGRIEQFLAQQLMGLLRKEGSRWVADSRQSQGLRFNPDFLTAINQLSQLADVLYTDGGMGVSFELQGKPVRDVVQTTFVLNGEKHHYFNQRESWQRFRWPGQGDHPGISEGHHHHHH | soluble |
| MSLSDDSTFGDATFVVLDFETTGLDPQVDEIIEIGAVKIQGGQIVDEYHTLIKPSREISRKSSEITGITQEMLENKRSIEEVLPEFLGFLEDSIIVAHNANFDYRFLRLWIKKVMGLDWERPYIDTLALAKSLLKLRSYSLDSVVEKLGLGPFRHHRALDDARVTAQVFLRFVEMMKKEGHHHHHH | soluble |
| MSLSDNITIKDVRTYSVSAEGGGDYHLQEKGHWITDTYISNPMSMYPDYKKTRTSWGIGVLGSVVVEIELSNGIVGVATGLGGEPACWLIQHHFKRFLINQSPKNLNLIWDQMFKASMFYGRKGITICAISVVDLALWDSLGILRDEPVWQMIGGKVRDEIHFYCTGPLPVETRKMGFWGSKVPLPFGPGDGHEGLEKNYEYLKKHRDSVPEKFPLMVDCYMSLNVQYAIQLAKRCEDLNINWWEEVLHPDDIDGYKQIKLAHPDKKWTTGEHEYTRYGFRQLIETRSIDILQPDVMWVGGMTELLKISAMAAAYDLPVVPHGSGPYSSHFIFSQPHSPFCEYIAGSPDGKKVIKMFPYFDGEQLPENGKIKPSYDPGFGMKIANKDTLIEIKQNEGHHHHHH | soluble |
| MSLSDTHIPLPERLRPRDLSEIIGQDHLLGEHAPLRQMIDQGHLPSIIFWGPPGVGKTTIALLLAQAVDRPFVSLSALNTGVKELREIIAESGDLLTPVVFIDEIHRFNKSQQDALLNAVEKGKITLIGATTENPSFEVNSALLSRCQVYTLNVLDSAAIQNLIDRAIDSDSFLKQRHIHIEEYEALIQFAAGDARKALNLIDLIASTFEPDQENIVTNAVTVKVAQQNIARYDKSGEQHYDIISAFIKSIRGSDPDAALYWMARMIKGGEDPVFIARRMLIAASEDIGNSNPNALLLAGECFRSVQAVGMPEARIILGQCAVYLATSPKSNSTYLAIDRALALAEKTANLPVPLHLRNAPTKLMKQQGYGADYLYPHHYPEHFVLQEYLPPELKGTKLYEFSRNKREVEGERLQQRRWQQDQEGHHHHHH | soluble |
| MSLSEDKMDLYLQQGMYGPLETKPDERHLFLGSLRERVVLALTKGQVLRSKPYKEAEHELKNSHNVTLLINGELQYQSYSSYIQMASRYGVPFKIVSDLQFHTPLGIVIAADIAVNRELIYIQDDIYNRSVLKSEGHHHHHH | soluble |
| MSLSEDLRFFEFFAGGGMARAGLGNQWQCLFANDMDRIKASTYIQNWGKDHFDSRDIREVNSEDLERNGDLAWASFPCQDLSVAGNGLGIGSSSAKDFTRSGALWPFLDLIDTLRQEERQPPLLVLENVVGLLTLEGGRDFAAICERLGEIGYRYGAVIIDAKHFLPQSRPRVFIIAVQRNIDIPCKLSRGMATANWHTPTLLRAYKSLTPILHADWVWWELGDAPILQENALESFIQREGVLWNTPEETKRIISMMAPAHLARLENAKCAGGVAVGSLYLRMRREGGINKQRAEITFSPLLGCLRTPRGGASRPRIIVVESGHVRTRLLTICEAARLMGLANTYILPEIYHHAFKVIGDGVAVPAVRFLAERLLEPLAIAAEGHHHHHH | not soluble |
| MSLSEENVKLAEELIRKGYNEKKIRSLLKLPDEEFKLALEVARARIKAKDKFSRSDLWFDLEGLRYATHEVVADYRGRRLKGQGVKSIADVSCGVGIQLIFFAKHGIRSVGIDIDPIKIEFAKRNAEKYGVEVEWVVGDALSPEIIEKVDAEVIFSDPARPPEVPERNLEDLLPSPLKIYEAYKHKTDSFIFDLPPQIRREKVPWKGEFEYIDLFGHVNRLTFYTEPLAKAERSAVILPQGARLESNPDLENIVEETMEPERYIYEIPQSIDYADLINELFHKVNGELKLLLREKRRILATSNDEVKSEYFKRSYIVVKVMPFHPVRINDFLRREGYGRATLRMSVDEKEYWRIRKKIESGLSGDKRAFVFKVRDLAVIAEEIPQAEGHHHHHH | soluble |
| MSLSENLIIFNAKVVTPLGFSARKGKEMAELRILEKATVEVVDGIITYVGPNRGEVRDGYYHHFWHYNARGKCLLPGFVDSHTHFVFGGERAEEFSWRLKGESYMSIMQRGGGIASTVQATRELSFIHLRSKAEGLLKKMTAMGITTVEGKSGYGLNRETELLQLKVMRSLNKDEGVRVDIVPTFLGAHALPDEYKERPDDYIDFLIRELLPVIQRDSLAEFCDVFCEEGVFSIEQSRRLLTAAGDYGLLPKLHADEIVPLGGAELAAELGAVSADHLLHASDAGIEAMARKGVVATLLPLTAFALKEPYARGRDMIDAGCAVALATDLNPGSCFSGSIPLTFALACIHMQLTVEEAITALTLNGAAALNRADSIGSIEVGKKGDFVVLDSDNYHILPYYVGMNCVNTTIKGGMLYPSEGHHHHHH | soluble |
| MSLSETLLEKNWKFSKGDFPEAAQTDYNDTKWESVVIPHDWAIFGPFDMNNDLQNVAVTQNFEKKASLKTGRTGGLPYVGTGWYRTSFDVPADKEVTLLFDGAMSEARVYVNGQEACFWPFGYNSFHCNVTPFLNKDGKNNTLAVRLENRPQSSRWYPGAGLYRNVHLIVTEKVHIPVWGTQITTPHVSDEFAAVRLQTKIENAGEKTEIRIETEILSPDGKVVTRKENKGRINHGQPFEQNFIVNAPQLWSPESPALYKAVSKVYADNQLVDTYSTRFGIRSIEYIADKGFYLNGKHRKFQGVCNHHDLGPLGAAINVAALRHQLTLLKDMGCDAIRTSHNMPAPELVELCDEMGFMMMIEPFDEWDIAKCENGYHRYFNEWAERDMVNMLHNYRNNPCVVMWSIGNEVPTQCSPVGYKVAKFLQDICHREDPTRPVTCGMDQVTCVLANGFAAMIDIPGLNYRANRYQEAYDKLPQNLILGSETASTVSSRGVYKFPVKDKKSAQYDDHQCSSYDVEACSWSNIPDEDFALADDHHWTIGQFVWTGFDYLGEPSPYDTDAWPNHSSMFGIIDLASLPKDRYYLYRSIWNKEAETLHILPHWTWPGREGEVTPVFVYTNYPAAELFINGKSYGKQSKNNSSLKSRYRLMWMDAIYEPGEVKVVAYDKDGKAVAEKSVRTASKPHHIELVSNRNELTADGKDLAYVTVKVVDKDGNLCPADSRLINFSVKGAGKYRAGANGDPTSLDLFHLPKMHAFNGMLTAIVQTNETAGEIILTAKAGGVKAGSIRLLTKEGHHHHHH | soluble |
| MSLSFFAHFSPLSGHQKQAAHQILPHLFLGSAAAARSATWLQQNRITHIVCVHNAEVSPHELKRQLTISHPAGDTRATSHHHRQQTVAGQLVVHPDRCVYCCCYVQDTPQQVFLPVLFPVMDFIDNAIRDQSFRGGSPSGAPHGNVLVHCAKGISRSASLVICYLMFRRCWSYADSFTYIRRKRPIYPNVGFQASILTQLLETQELVENMFSQSEGHHHHHH | not soluble |
| MSLSFLKHVQDCNTHDLSNFVRFVIEGRRVGWVRKALAQRLKAHGRVFDVTRDAVLLSASLRTPQSRTRAVADVVDRLADEGVVPAPRGELYRVNQSWGEPTLMLLDRAVVPTFGVRAYGVHLNGYVGAGADLHLWIGRRSPDKSVAPGKLDNMVAGGQPADLSLRQNLIKECAEEADLPEALARQAIPVGAITYCMESPAGIKPDTLFLYDLALPEDFRPHNTDGEMADFMLWPAAKVVEAVRTTEAFKFNVNLTVIDFAIRHGLIDPDNEGHHHHHH | not soluble |
| MSLSGDDFSVPSKNSESTLFDSVEGDGAMMEEGVKSRPRQKKTQACLASKHVQEAPRLEPANEEHNVETAEDSEIRYLSADSGDADDSDADLGSAVKQLQEFIPNIKDRATSTIKRMYRDDLERFKEFKAQGVAIKFGKFSVKENKQLEKNVEDFLALTGIESADKLLYTDRYPEEKSVITNLKRRYSFRLHIGRNIARPWKLIYYRAKKMFDVNNYKGRYSEGDTEKLKMYHSLLGNDWKTIGEMVARSSLSVALKFSQISSQRNRGAWSKSETRKLIKAVEEVILKKMSPQELKEVDSKLQENPESCLSIVREKLYKGISWVEVEAKVQTRNWMQCKSKWTEILTKRMTNGRRIYYGMNALRAKVSLIERLYEINVEDTNEIDWEDLASAIGDVPPSYVQTKFSRLKAVYVPFWQKKTFPEIIDYLYETTLPLLKEKLEKMMEKKGTKIQTPAAPKQVFPFRDIFYYEDDSEGHHHHHH | not soluble |
| MSLSGKVGAPTLEVLRTAVSKRWSANSDLIDAIEHVSRQALLELAERAGQVDEVEDQLFRFSRILDVQPRLAILLGDCAVPAEGRVRLLRKVLERADSTVNPVVVALLSHTVELLRGQAVEEAVLFLAEVAVARRGEIVAQVGAAAELSDAQRTRLTEVLSRIYGHPVTVQLHIDAALLGGLSIAVGDEVIDGTLSSRLAAAEARLPDEGHHHHHH | not soluble |
| MSLSIRYIVKTDVSETFEIIKAGQVGSNIVFSEIRTFDFGELATLACEKFYFRSSNRAALFVNINNFHGETEVTIISTGSSNGFFTGIDWGAAFDYMHSVVADLKRVAIREVKMEKQEEGHHHHHH | soluble |

Reference: the DeepSol protein solubility set
